Substrate in this data set: NCCc1c[nH]cn1
Nature of the data set: purified protein. It counts as biochemical, Pimelobacter simplex.

Usually Km stands for the concentration of substrate that gives half-maximal velocity. The kcat is the number of substrate molecules converted per active site and unit of time at saturation.

B1: histamine dehydrogenase (HADH) (Pimelobacter simplex) (protein)
chain: MTEQPAVAAPYDVLFEPVQIGPFTTKNRFYQVPHCNGMGYRDPSAQASMRKIKAEGGWSAVCTEQVEIHATSDIAPFIELRIWDDQDLPALKRIADAIHEGGGLAGIELAHNGMNAPNQLSRETPLGPGHLPVAPDTIAPIQARAMTKQDIDDLRRWHRNAVRRSIEAGYDIVYVYGAHGYSGVHHFLSKRYNQRTDEYGGSLENRMRLLRELLEDTLDECAGRAAVACRITVEEEIDGGITREDIEGVLRELGELPDLWDFAMGSWEGDSVTSRFAPEGRQEEFVAGLKKLTTKPVVGVGRFTSPDAMVRQIKAGILDLIGAARPSIADPFLPNKIRDGRLNLIRECIGCNICVSGDLTMSPIRCTQNPSMGEEWRRGWHPERIRAKESDARVLVVGAGPSGLEAARALGVRGYDVVLAEAGRDLGGRVTQESALPGLSAWGRVKEYREAVLAELPNVEIYRESPMTGDDIVEFGFEHVITATGATWRTDGVARFHTTALPIAEGMQVLGPDDLFAGRLPDGKKVVVYDDDHYYLGGVVAELLAQKGYEVSIVTPGAQVSSWTNNTFEVNRIQRRLIENGVARVTDHAVVAVGAGGVTVRDTYASIERELECDTVVMVTARLPREELYLDLVARRDAGEIASVRGIGDAWAPGTIAAAVWSGRRAAEEFDAVLPSNDEVPFRREVTQLA
In the case of B1, the Km came out at 24 µM and the kcat was found to be 9.8 s⁻¹.

The values above are taken from paper PMC2531280.
